In the supplement of paper PMC7125110:
± gives the standard error. This sample holds only a part of the variants without activity.

B1: glmS ribozyme (parent)
chain: AUAAAAGCGCCAGAACUACAGAAAUGUAGUUGACGAGGAGGAGGUUUAUCGAAUUUUCGGCGGAUGCCUCCAAA

Experiments:
Conditions in all cases: with glucosamine-6-phosphate
glucosamine-6-phosphate [1] = variants of: B1; assay: self-cleavage kobs at 40 uM GlcN6P; higher = faster cleavage; RNA array
Method in brief: (§1)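 E. coli RNA polymerase transcribed barcoded ribozyme variants in situ on sequenced MiSeq chips, which were tracked via a hybridised Cy3 probe at 37 °C. Tiles were imaged over ~14 h after glucosamine-6-phosphate (40 μM to 10 mM) in HEPES/KCl/Mg(OAc)2 buffer was flowed in. Normalised per-tile medians were fit to one- or two-exponential decays for kobs, and kcat and KM came from weighted Michaelis–Menten fits.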

glucosamine-6-phosphate [2] = variants of: B1; assay: self-cleavage kobs at 160 uM GlcN6P; higher = faster cleavage; RNA array
Method in brief: as §1

glucosamine-6-phosphate [3] = variants of: B1; assay: self-cleavage kobs at 640 uM GlcN6P; higher = faster cleavage; RNA array
Method in brief: as §1

glucosamine-6-phosphate [4] = variants of: B1; assay: self-cleavage kobs at 2500 uM GlcN6P; higher = faster cleavage; RNA array
Method in brief: as §1

glucosamine-6-phosphate [5] = variants of: B1; assay: self-cleavage kobs at 10000 uM GlcN6P; higher = faster cleavage; RNA array
Method in brief: as §1

Variant | self-cleavage kobs at 40 uM GlcN6P (glucosamine-6-phosphate [1]) [s⁻¹] | self-cleavage kobs at 160 uM GlcN6P (glucosamine-6-phosphate [2]) [s⁻¹] | self-cleavage kobs at 640 uM GlcN6P (glucosamine-6-phosphate [3]) [s⁻¹] | self-cleavage kobs at 2500 uM GlcN6P (glucosamine-6-phosphate [4]) [s⁻¹] | self-cleavage kobs at 10000 uM GlcN6P (glucosamine-6-phosphate [5]) [s⁻¹]
G60C A64U | < 1e-05 | < 1e-05 | < 1e-05 | < 1e-05 | < 1e-05
G60A C67U | < 1e-05 | < 1e-05 |  |  | 
C70A | 0.000267 ± 7.7e-05 | 0.000416 ± 0.00014 | 0.00093 ± 0.00021 | 0.000583 ± 4.1e-05 | 0.00384 ± 0.0011
G7U U45G | < 1e-05 | < 1e-05 | < 1e-05 | < 1e-05 | < 1e-05
C11U A48U G51U | < 1e-05 |  |  |  | 
A12U G32C G41U C61A | < 1e-05 |  |  |  | 
U30A G44A | < 1e-05 | < 1e-05 |  |  | 4.03e-05 ± 8.7e-06
G7A C58U C68G | 0.000285 ± 7.7e-05 |  |  |  | 
A42C C61G | < 1e-05 | < 1e-05 | < 1e-05 | < 1e-05 | 
U31G A39G A64G | 0.00023 ± 8.9e-05 |  | 0.00544 ± 0.0014 |  | 0.0288 ± 0.012
A14G G29U C34U | < 1e-05 |  |  |  | 
A12C A36G A64C | < 1e-05 |  | < 1e-05 |  | < 1e-05
C58U U65A | < 1e-05 | < 1e-05 |  |  | 
A12G A14U A36G A48G A53G | < 1e-05 |  |  | < 1e-05 | < 1e-05
C16U U49C | < 1e-05 | < 1e-05 | < 1e-05 | < 1e-05 | 
A12U G32C C67U | < 1e-05 |  |  |  | 
G35C A39G U49G C50U | < 1e-05 |  | < 1e-05 | < 1e-05 | < 1e-05
A6G G44U | < 1e-05 |  | < 1e-05 | < 1e-05 | < 1e-05
C8U G41A G59C | < 1e-05 |  |  |  | < 1e-05
A14C G62C G63A C68G | < 1e-05 |  |  |  | 
G13C G40U A53U G59U | < 1e-05 |  |  |  | < 1e-05
G40C U49C | < 1e-05 |  | < 1e-05 | < 1e-05 | < 1e-05
U55A C71U | 0.00109 ± 0.00019 | 0.00212 ± 0.00076 | 0.0121 ± 0.0034 | 0.00755 ± 0.0025 | 0.0549 ± 0.013
A12G A15C G35U C71U | < 1e-05 | < 1e-05 |  |  | 

Variant | self-cleavage kobs at 40 uM GlcN6P (glucosamine-6-phosphate [1]) [s⁻¹] | self-cleavage kobs at 160 uM GlcN6P (glucosamine-6-phosphate [2]) [s⁻¹] | self-cleavage kobs at 640 uM GlcN6P (glucosamine-6-phosphate [3]) [s⁻¹] | self-cleavage kobs at 2500 uM GlcN6P (glucosamine-6-phosphate [4]) [s⁻¹] | self-cleavage kobs at 10000 uM GlcN6P (glucosamine-6-phosphate [5]) [s⁻¹]
G9U G41C | < 1e-05 | < 1e-05 |  | < 1e-05 | 
A33C C58A G62A | < 1e-05 |  |  |  | 
U31G U54A | 0.000582 ± 0.00015 |  |  | 0.00634 ± 0.0018 | 0.00833 ± 0.002
C16A A36G | < 1e-05 | < 1e-05 | < 1e-05 |  | < 1e-05
G41C U69A | < 1e-05 | < 1e-05 | < 1e-05 |  | 
G9C A42G | < 1e-05 | < 1e-05 |  | < 1e-05 | < 1e-05
G44U G60C | < 1e-05 | < 1e-05 | < 1e-05 | < 1e-05 | < 1e-05
C11U G62C | < 1e-05 | < 1e-05 | < 1e-05 | < 1e-05 | 
C8A C10U C34G | < 1e-05 |  |  |  | 
A6G U54G U57C | < 1e-05 |  |  |  | < 1e-05
A6G G41U C50G | < 1e-05 |  |  | < 1e-05 | < 1e-05
C8A U47C U65A | < 1e-05 |  |  |  | 
A48U U49C | < 1e-05 | < 1e-05 |  | < 1e-05 | < 1e-05
A14G U45G A64U | < 1e-05 |  |  |  | 
A42G U47A | 0.000848 ± 0.00018 | 0.00279 ± 0.0011 | 0.00967 ± 0.0013 | 0.0269 ± 0.0085 | 0.00752 ± 0.0028
U31C A36G A39G U47C | < 1e-05 |  |  |  | < 1e-05
G41A A48U C68A | < 1e-05 |  | < 1e-05 | < 1e-05 | < 1e-05
C58G A64C | < 1e-05 | < 1e-05 |  |  | 
C58G A64U | < 1e-05 |  | < 1e-05 | < 1e-05 | < 1e-05
A42G C68U | 0.000563 ± 7.3e-05 | 0.000735 ± 0.00016 | 0.00237 ± 0.00041 |  | 0.0168 ± 0.0034
C34A A53C | < 1e-05 |  | < 1e-05 | < 1e-05 | < 1e-05
C50G C70A | 8.32e-05 ± 1.7e-05 | 0.000173 ± 5.4e-05 | 0.000163 ± 4.1e-05 | 0.000238 ± 5.8e-05 | 7.91e-05 ± 1.3e-05
U57G G59C | < 1e-05 |  | < 1e-05 |  | < 1e-05
C8U U65C | < 1e-05 |  | < 1e-05 | < 1e-05 | 

Variant | self-cleavage kobs at 40 uM GlcN6P (glucosamine-6-phosphate [1]) [s⁻¹] | self-cleavage kobs at 160 uM GlcN6P (glucosamine-6-phosphate [2]) [s⁻¹] | self-cleavage kobs at 640 uM GlcN6P (glucosamine-6-phosphate [3]) [s⁻¹] | self-cleavage kobs at 2500 uM GlcN6P (glucosamine-6-phosphate [4]) [s⁻¹] | self-cleavage kobs at 10000 uM GlcN6P (glucosamine-6-phosphate [5]) [s⁻¹]
G41U C58G | < 1e-05 | < 1e-05 | < 1e-05 | < 1e-05 | < 1e-05
G44U G59U U65G | < 1e-05 |  |  | < 1e-05 | 
G44A G62A | < 1e-05 | < 1e-05 | < 1e-05 | < 1e-05 | < 1e-05
G13C G51C G63C | < 1e-05 |  |  |  | 
G13A C50G G66U U69A | 8.64e-05 ± 2.3e-05 |  | 0.000563 ± 0.00026 |  | 0.000117 ± 3e-05
U47G C58A G59A C70A | 4.75e-05 ± 1.8e-05 |  |  |  | 
G7A A52C | < 1e-05 | < 1e-05 | < 1e-05 | < 1e-05 | < 1e-05
A52G G60A U65G C71U | < 1e-05 |  |  |  | 
U46G U54C C67U | 9.53e-05 ± 1.8e-05 |  |  |  | 0.00207 ± 0.00047
G13U A15U G43C U57C C58G | < 1e-05 |  |  |  | 
A48G A64G | < 1e-05 |  |  | 7.81e-05 ± 2.4e-05 | 9.59e-05 ± 2.5e-05
A15C G51A | < 1e-05 | < 1e-05 |  |  | < 1e-05
U30A U54G | 0.000119 ± 2.1e-05 |  |  |  | 0.00479 ± 0.00078
U31G U57G | < 1e-05 |  |  |  | 
G38C A39C G43U U57G C71U | < 1e-05 |  | < 1e-05 | < 1e-05 | < 1e-05
C16G G37A C68U | < 1e-05 |  |  |  | 
A6G C10U A39U | < 1e-05 | < 1e-05 |  | < 1e-05 | < 1e-05
C16A A36C G51A A53U U69G | 6.48e-05 ± 2.5e-05 |  |  |  | 4.91e-05 ± 1.6e-05
G41A U49C | < 1e-05 | < 1e-05 | < 1e-05 | < 1e-05 | 
A33C C68A | < 1e-05 |  | < 1e-05 | < 1e-05 | < 1e-05
U30A G59A G63A | < 1e-05 |  |  |  | 
G7C A12U G38U G40C U49G U56G | < 1e-05 |  |  |  | 
G7C G35U U54G | < 1e-05 |  |  | < 1e-05 | < 1e-05
C61A G66C | < 1e-05 |  |  | < 1e-05 | < 1e-05

Variant | self-cleavage kobs at 40 uM GlcN6P (glucosamine-6-phosphate [1]) [s⁻¹] | self-cleavage kobs at 160 uM GlcN6P (glucosamine-6-phosphate [2]) [s⁻¹] | self-cleavage kobs at 640 uM GlcN6P (glucosamine-6-phosphate [3]) [s⁻¹] | self-cleavage kobs at 2500 uM GlcN6P (glucosamine-6-phosphate [4]) [s⁻¹] | self-cleavage kobs at 10000 uM GlcN6P (glucosamine-6-phosphate [5]) [s⁻¹]
U45A C67A | 0.000364 ± 5.5e-05 |  |  | 0.00568 ± 0.0022 | 0.00719 ± 0.0014
A6C G41A | < 1e-05 |  | < 1e-05 | < 1e-05 | 
A39G U47G | 0.000644 ± 0.0001 |  | 0.00207 ± 0.00049 | 0.0155 ± 0.0035 | 0.0237 ± 0.0069
U30A G35A | < 1e-05 | < 1e-05 | < 1e-05 | < 1e-05 | < 1e-05
G9A U30C U31C C50A | < 1e-05 | < 1e-05 | < 1e-05 |  | < 1e-05
U47C C61G C71U | < 1e-05 |  |  |  | < 1e-05
C11U C58G C67U U69G | 3.48e-05 ± 1.2e-05 |  |  |  | 6.72e-05 ± 1.3e-05
C11A G66C | < 1e-05 |  |  | < 1e-05 | 
C10U G35U C67U | < 1e-05 |  |  |  | 
C8G G13A G37U G44C A53U G63U | < 1e-05 |  |  |  | 
A39U U55A U56C | 2.36e-05 ± 8.3e-06 |  |  |  | 0.00213 ± 0.00023
A48C C50A | < 1e-05 | < 1e-05 | < 1e-05 |  | < 1e-05
C8A G41U C50G | < 1e-05 |  |  |  | 
C19U | 0.00125 ± 0.00046 | 0.00445 ± 0.0011 | 0.00527 ± 0.0011 | 0.0229 ± 0.0083 | 
G37U G60A | < 1e-05 |  | < 1e-05 |  | 
A15U C34G G66U C71U | < 1e-05 |  |  |  | < 1e-05
G7U A14G | < 1e-05 | < 1e-05 | < 1e-05 |  | < 1e-05
G38A G51U A52U | < 1e-05 |  |  |  | < 1e-05
A14U G37U | < 1e-05 |  | < 1e-05 |  | < 1e-05
G59U G63U C67A | < 1e-05 |  |  |  | < 1e-05
A14G U30A | 0.000672 ± 0.00011 | 0.00098 ± 0.00024 | 0.00759 ± 0.0013 | 0.0384 ± 0.012 | 0.017 ± 0.0042
